# Reference: paper doi:10.1101/497123 (2018)
# B1: CT149 Fab (Fab, V domains shown)
# VH: QVQLVQSGAEVKKPGASVKVSCKTSGYSFSTYGVSWVRQAPGQGPEWVGWISAYTGITDYAQKFQGRVTLTTDATTATAFLDLRSLRPDDTATYFCARDKVQGRVEVGSGGRHDYWGQGTLVIVSS
# VL: EVVLTQSPGTLALPPGERATLSCRASHRVGSTYIAWYQQKSGQAPRRLIYGASNRATDIPDRFSGSGSGTDFTLTIRRLEPEDSAVYYCQQFSVSPWTFGQGTRVEIK
# Tests used:
# Assay in all cases: BLI
# m9 = target: m9
# m15 = target: m15
# m13 = target: m13
# m11 = target: m11
# m14 = target: m14
# m12 = target: m12
# full length H7 HA trimer [1] = target: T1, full length H7 HA trimer (influenza A virus, subtype H7 (strain …))
# full length H7 HA trimer [2] = target: T1, full length H7 HA trimer; remark: listed apart in the source
binder,measurement,setting,value
B1,Kd,m9,7 nM
same,koff,m9,0.003 s⁻¹
same,Kd,m15,9.8 nM
same,koff,m15,0.0034 s⁻¹
same,Kd,m13,2.7 nM
same,koff,m13,0.0018 s⁻¹
same,Kd,m11,9 nM
same,koff,m11,0.0033 s⁻¹
same,Kd,m14,7.2 nM
same,koff,m14,0.0029 s⁻¹
same,Kd,m12,8.2 nM
same,koff,m12,0.003 s⁻¹
same,Kd,full length H7 HA trimer [1],3.7 nM
same,koff,full length H7 HA trimer [2],0.0031 s⁻¹
